Reference: publication doi:10.1101/2023.11.08.566258

Target: Prominin-1 (Prom1) W795R, C-terminally Strep-tagged (human)
Assay: co-IP; EVs from cells co-transfected with Strep-tagged and mScarlet-tagged Prom1, solubilized with 1% DDM; Strep resin; co-purified Prom1-mScarlet measured by fluorescence imaging of the resin beads (CY3 filter set); control with Prom1-mScarlet alone

- co-purified mScarlet fluorescence, percent of WT Prom1: 60%
Substance: Prominin-1 (Prom1) W795R, C-terminally Strep-tagged (natural protein)
